Measured values as given in patent US20180186873A1 (CEPHALON, published 2018).
Several values for one entry are separate records, joined by “and”; a condition that tells them apart may be missing. Equal entries are not always repeated. Blank lines part the entries; values can stand above or below the binder they belong to.

Assays:
[1] = molecular target: T1, recombinant human IL-5 (human, UniProt P05113 20-134); test: SPR
[2] = molecular target: T1, recombinant human IL-5; test: SPR; remark: listed apart in the source
[3] = molecular target: T1, recombinant human IL-5; test: SPR; remark: listed apart in the source
[4] = molecular target: T1, recombinant human IL-5; test: SPR; remark: listed apart in the source
[5] = molecular target: T1, recombinant human IL-5; test: SPR; remark: listed apart in the source
[6] = molecular target: T1, recombinant human IL-5; test: SPR; remark: listed apart in the source
[7] = molecular target: T1, recombinant human IL-5; test: SPR; remark: listed apart in the source
[8] = molecular target: T1, recombinant human IL-5; test: SPR; remark: listed apart in the source
[9] = molecular target: T1, recombinant human IL-5; test: SPR; remark: listed apart in the source
[10] = molecular target: T2, recombinant human IL-5 (human, UniProt P05113 20-134); test: SPR, Protein A capture
[11] = molecular target: T2, recombinant human IL-5; test: SPR, Protein A capture; remark: listed apart in the source
[12] = molecular target: T2, recombinant human IL-5; test: SPR, Protein A capture; remark: listed apart in the source
[13] = molecular target: T2, recombinant human IL-5; test: SPR, Protein A capture; remark: listed apart in the source
[14] = molecular target: T2, recombinant human IL-5; test: SPR, Protein A capture; remark: listed apart in the source
[15] = molecular target: T2, recombinant human IL-5; test: SPR, Protein A capture; remark: listed apart in the source
[16] = molecular target: T2, recombinant human IL-5; test: SPR, Protein A capture; remark: listed apart in the source
[17] = molecular target: T2, recombinant human IL-5; test: SPR, Protein A capture; remark: listed apart in the source
[18] = molecular target: T2, recombinant human IL-5; test: SPR, Protein A capture; remark: listed apart in the source
[19] = molecular target: T2, recombinant human IL-5; test: SPR, Protein A capture; remark: listed apart in the source

Kd [1]: 0.173 nM
koff [1]: 0.000243 s⁻¹
kon [1]: 1.41e+06 M⁻¹ s⁻¹
Kd [2]: 0.168 nM
koff [2]: 0.00023 s⁻¹
kon [2]: 1.37e+06 M⁻¹ s⁻¹
Kd [3]: 0.15 nM
koff [3]: 0.000215 s⁻¹
kon [3]: 1.43e+06 M⁻¹ s⁻¹
Kd [4]: 0.2 nM
koff [4]: 0.000284 s⁻¹
kon [4]: 1.42e+06 M⁻¹ s⁻¹
Kd [5]: 0.174 nM
koff [5]: 0.000252 s⁻¹
kon [5]: 1.45e+06 M⁻¹ s⁻¹
Kd [6]: 0.168 nM
koff [6]: 0.000239 s⁻¹
Kd [7]: 0.193 nM
koff [7]: 0.000285 s⁻¹
kon [7]: 1.48e+06 M⁻¹ s⁻¹
Kd [8]: 0.16 nM
koff [8]: 0.000232 s⁻¹
kon [8]: 1.45e+06 M⁻¹ s⁻¹
kon [9]: 1.43e+06 M⁻¹ s⁻¹
B1: 3A5.040 (antibody, human IgG4 S228P, lambda)
heavy: not shown
light: SYVLTQPPSVSVAPGQTARITCGGNNIGSKNVYWYQQKPGQAPVLVVHDDSDRPSGIPERFSGSNSGNTATLTISRVEVGDEADYSCQVWDSSSDHVVFGGGTKLTVLGQPKAAPSVTLFPPSSEELQANKATLVCLISDFYPGAVTVAWKADSSPVKAGVETTTPSKQSNNKYAASSYLSLTPEQWKSHRSYSCQVTHEGSTVEKTVAPTECS

Kd [10]: 0.167 nM and 0.174 nM
koff [10]: 0.000237 s⁻¹ and 0.000252 s⁻¹
kon [10]: 1.42e+06 M⁻¹ s⁻¹ and 1.45e+06 M⁻¹ s⁻¹
Kd [11]: 0.161 nM and 0.168 nM
koff [11]: 0.000232 s⁻¹ and 0.000239 s⁻¹
kon [11]: 1.44e+06 M⁻¹ s⁻¹ and 1.43e+06 M⁻¹ s⁻¹
Kd [12]: 0.148 nM and 0.193 nM
koff [12]: 0.000214 s⁻¹ and 0.000285 s⁻¹
kon [12]: 1.44e+06 M⁻¹ s⁻¹ and 1.48e+06 M⁻¹ s⁻¹
Kd [13]: 0.193 nM and 0.16 nM
koff [13]: 0.000261 s⁻¹ and 0.000232 s⁻¹
kon [13]: 1.36e+06 M⁻¹ s⁻¹ and 1.45e+06 M⁻¹ s⁻¹
Kd [14]: 0.18 nM
koff [14]: 0.000246 s⁻¹
kon [14]: 1.36e+06 M⁻¹ s⁻¹
Kd [15]: 0.171 nM
koff [15]: 0.000252 s⁻¹
kon [15]: 1.47e+06 M⁻¹ s⁻¹
Kd [16]: 0.147 nM
koff [16]: 0.000213 s⁻¹
kon [16]: 1.45e+06 M⁻¹ s⁻¹
Kd [17]: 0.163 nM
koff [17]: 0.000229 s⁻¹
kon [17]: 1.41e+06 M⁻¹ s⁻¹
Kd [18]: 0.175 nM
koff [18]: 0.000245 s⁻¹
kon [18]: 1.4e+06 M⁻¹ s⁻¹
% 3A5.040 kd [19]: 94%
B2: 3A5.040 (antibody, human IgG4 S228P, lambda)
heavy: not shown
light: SYVLTQPPSVSVAPGQTARITCGGNNIGSKNVYWYQQKPGQAPVLVVHDDSDRPSGIPERFSGSNSGNTATLTISRVEVGDEADYSCQVWDSSSDHVVFGGGTKLTVLGQPKAAPSVTLFPPSSEELQANKATLVCLISDFYPGAVTVAWKADSSPVKAGVETTTPSKQSNNKYAASSYLSLTPEQWKSHRSYSCQVTHEGSTVEKTVAPTECS
